Test results published in publication PMC7171172.

Biological target: Rhodobacter capsulatus formate dehydrogenase subunit FdsA (Rhodobacter capsulatus)
Assay: cryo-EM structure; single particle analysis of the co-expressed, co-purified RcFDH complex (100 µg/ml), as isolated with 10 mM azide and after 5 min with 2 mM NADH; C2 symmetry imposed; 3.3 Å and 3.2 Å

Substance: Rhodobacter capsulatus formate dehydrogenase subunit FdsA (natural protein)
- stoichiometry N: 2
